Test [1] has as its target T1, rat C1s (produced in house) (rat, UniProt Q6P6T1 16-688).
T1 construct: also called RaC1s
T1 sequence: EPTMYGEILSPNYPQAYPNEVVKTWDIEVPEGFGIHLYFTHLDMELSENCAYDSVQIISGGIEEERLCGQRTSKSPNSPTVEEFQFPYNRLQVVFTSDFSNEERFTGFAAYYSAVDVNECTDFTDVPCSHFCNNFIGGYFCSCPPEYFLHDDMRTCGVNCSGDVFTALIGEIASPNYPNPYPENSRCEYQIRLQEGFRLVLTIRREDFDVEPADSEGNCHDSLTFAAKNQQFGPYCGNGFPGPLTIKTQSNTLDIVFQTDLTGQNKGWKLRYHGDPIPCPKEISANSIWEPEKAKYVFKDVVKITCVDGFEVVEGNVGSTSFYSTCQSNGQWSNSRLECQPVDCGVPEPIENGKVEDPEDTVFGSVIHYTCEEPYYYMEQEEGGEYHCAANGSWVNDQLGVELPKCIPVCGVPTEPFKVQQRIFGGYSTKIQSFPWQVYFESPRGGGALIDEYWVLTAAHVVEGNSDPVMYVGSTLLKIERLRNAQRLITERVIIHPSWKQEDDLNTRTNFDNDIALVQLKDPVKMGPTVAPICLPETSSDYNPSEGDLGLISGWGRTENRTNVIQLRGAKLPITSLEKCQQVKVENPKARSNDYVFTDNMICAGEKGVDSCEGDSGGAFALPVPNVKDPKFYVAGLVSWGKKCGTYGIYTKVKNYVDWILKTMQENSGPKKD
In words: ELISA, plate coated with 200 ng/well RatC1s, OD450nm. The protocol:
The next morning, plates were blocked with SuperBlock T20 blocking buffer (Thermo Scientific 37536) for 1 h with gentle shaking. Then, various concentrations of anti-C1s antibodies diluted in SuperBlock T20 blocking buffer were added to the plates and incubated for 1 h with gentle shaking. Mouse IgG (Sigma-Aldrich I5381) and Human IgG1 (BioXCell BP0297) were used as negative controls. The plates were washed before incubating with HRP conjugated secondary antibodies diluted in SuperBlock T20 blocking buffer (goat anti-mouse IgG (H+L) cross-adsorbed secondary antibody HRP (Invitrogen G-21040) or goat anti-human IgG antibody, HRP conjugate (Millipore AP309P)) for 1 h with gentle shaking. At last, the plates were washed and color developed with ELISA liquid substrate (Sigma-Aldrich), followed by stopping the reaction with addition of the same volume of […] 1M H₂SO₄. Bound antibody was measured by absorbance at OD₄₅₀ₙₘ.
(In an ELISA, binding on a coated surface is turned into a signal by an enzyme label.)

Test [2] concerns the target T2, human C1s mutant M15 (S360N) (human, UniProt P09871 16-688).
T2 construct: The entry is the mutant itself
T2 sequence: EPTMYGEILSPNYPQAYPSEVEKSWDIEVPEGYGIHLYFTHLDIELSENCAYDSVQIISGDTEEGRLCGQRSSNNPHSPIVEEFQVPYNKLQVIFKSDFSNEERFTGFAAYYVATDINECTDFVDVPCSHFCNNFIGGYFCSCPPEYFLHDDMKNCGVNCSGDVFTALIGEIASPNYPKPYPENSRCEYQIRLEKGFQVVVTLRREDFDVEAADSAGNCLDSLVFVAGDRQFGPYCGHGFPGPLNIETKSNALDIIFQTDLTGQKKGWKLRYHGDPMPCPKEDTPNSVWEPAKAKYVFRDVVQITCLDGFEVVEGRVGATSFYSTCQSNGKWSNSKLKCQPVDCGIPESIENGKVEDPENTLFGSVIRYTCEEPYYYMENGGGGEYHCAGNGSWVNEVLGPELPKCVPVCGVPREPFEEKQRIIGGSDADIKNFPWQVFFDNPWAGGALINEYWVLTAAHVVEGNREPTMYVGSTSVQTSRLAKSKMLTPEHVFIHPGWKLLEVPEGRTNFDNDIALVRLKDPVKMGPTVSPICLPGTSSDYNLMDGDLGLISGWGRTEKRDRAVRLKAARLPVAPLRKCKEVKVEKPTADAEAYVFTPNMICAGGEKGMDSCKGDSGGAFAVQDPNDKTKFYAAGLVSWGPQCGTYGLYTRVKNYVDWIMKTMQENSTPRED
The experiment in a line: ELISA, plate coated with human C1s mutant M15: S360N, OD450nm. The protocol: ELISA was carried out by first coating 96-well plates with 200 ng/well of full-length or truncated C1s proteins overnight. The next morning, plates were blocked with SuperBlock T20 blocking buffer (Thermo Scientific 37536) for 1 h with gentle shaking. Then, various concentrations of anti-C1s antibodies diluted in SuperBlock T20 blocking buffer were added to the plates and incubated for 1 h with gentle shaking. Mouse IgG (Sigma-Aldrich 15381) and human IgG1 (BioXCell BP0297) were used as negative controls. The plates were washed before incubating with HRP conjugated secondary antibodies diluted in SuperBlock T20 blocking buffer (goat anti-mouse IgG (H+L) cross-adsorbed secondary antibody HRP (Invitrogen G-21040) or goat anti-human IgG antibody, HRP conjugate (Millipore AP309P)) for 1 h with gentle shaking. At last, the plates were washed and color developed with ELISA liquid HRP substrate (Sigma-Aldrich), followed by stopping the reaction with addition of 1M H₂SO₄ in the same volume as the ELISA liquid substrate. Bound antibody was measured by absorbance at OD₄₅₀ₙₘ.
Binding of anti-C1s antibodies to mutants M1-M20 of human C1s was measured by ELISA as described in Example 4, and results are shown in FIGS. 6B-6U. All anti-C1s humanized variants including hz2-7(H1L2), hz2-8(H1L2 G80A) and hz2-8(H1L2 G80A/T82A) maintained strong binding properties to the majority (16 out of 20) of C1s mutants including M1 (FIG. 6B), M2 (FIG. 6C), M3 (FIG. 6D). M4 (FIG. 6E), M7 (FIG. 6H), M8 (FIG. 6I), M10 (FIG. 6K), M11 (FIG. 6L), M12 (FIG. 6M), M13 (FIG. 6N), M15 (FIG. 6P), M16 (FIG. 6Q), M17 (FIG. 6R), M18 (FIG. 6S), M19 (FIG. 6T) and M20 (FIG. 6U).

By EC50 is commonly meant the concentration that produces a half-maximal response. Read a low EC50 as higher potency in that assay.

B1: Anti-C1s antibody 2-8 (antibody, V domains shown)
VH: EVQLQQSGAELVRPGALVKLSCKASGFNIKEYYMHWVKQRPEQGLEWIGWIDPENGDTIYDPKFQGKASITADTSSNTAYLQLSSLTSEDTAVYYCARSRLFFAYWGQGTLVTVSA
VL: DIVMTQSHKFMSTSVGDRVSFTCKASQDVRTAVDWYQQKPGQSPKLLIYSASYRYTGVPDRFTGTGSGTDFTFTISSVQAEDLAVYFCQQQYTTPYTFGGGTKLEIKT
notes: the HC/LC entries may hold it too; also called clone 2-8
Molecule B1 yielded a half-maximal effective concentration (EC50) in test [1] of 0.063 µg/mL.

B2: Anti-C1s antibody hz2-8 (H1L2 G80A) (antibody, V domains shown)
VH: QVQLVQSGAEVKKPGASVKVSCKASGFNIKEYYMHWVRQAPEQGLEWMGWIDPENADTIYAQKFQGRVTITADTSTNTAYMELSSLRSEDTAVYYCARSRLFFAYWGQGTLVTVSS
VL: DIQMTQSPKSLSASVGDRVTITCRASQDVRTALDWYQQKPGQSPKLLIYSASYRYSGVPSRFSGSGSGTDFTLTISSLQPEDFATYYCQQQYTTPYTFGQGTKLEIKR
notes: Humanized variant with G80A in HC CDR2 (already in the entry), human IgG1 / kappa
Consider B2, for which the EC50 in test [2] turned out to be 4 ng/mL.

B3: Anti-C1s antibody hz2-8 (H1L2 G80A/T82A) (antibody, V domains shown)
VH: QVQLVQSGAEVKKPGASVKVSCKASGFNIKEYYMHWVRQAPEQGLEWMGWIDPENADAIYAQKFQGRVTITADTSTNTAYMELSSLRSEDTAVYYCARSRLFFAYWGQGTLVTVSS
VL: DIQMTQSPKSLSASVGDRVTITCRASQDVRTALDWYQQKPGQSPKLLIYSASYRYSGVPSRFSGSGSGTDFTLTISSLQPEDFATYYCQQQYTTPYTFGQGTKLEIKR
notes: Humanized variant with G80A and T82A in HC CDR2 (already in the entry), human IgG1 / kappa
For B3, the values for the EC50 in test [2] and in test [1] were 5 ng/mL and 0.105 µg/mL, respectively.

B4: Anti-C1s antibody hz2-7(H1L2) (antibody, V domains shown)
VH: EVQLLESGGGLVQPGGSLRLSCAASGFTFSNYFMNWVRQAPGKGLEWVSEIRLKFTNYATHYADSVKGRFTISRDDSKSTLYLQMNSLRAEDTAVYYCTRDYGSRNGYFDYWGQGTLVTVSS
VL: DIVMTQTPLSLPVTPGEPASISCRSSKSLLHSNGNTFLYWFLQKPGQSPQLLIYRMSNLASGVPDRFSGSGSGTDFTLKISRVEAEDVGVYYCMQHLEYPYTFGGGTKLEIKR
notes: Humanized, human IgG1 / kappa; also called hz2-7(1L2)
B4 had an EC50 in test [2] of 3 ng/mL. For the same molecule, the binding result in test [1] is recorded as “no binding (tested: 1000 ng/ml (Log 3))”.

B5: Anti-C1s antibody 2-7 (antibody, human IgG1, kappa, V domains shown)
VH: EVKLEESGGGLVPPGGSMKLSCVASGFTFSNYFMNWVRQSPEKGLEWVAEIRLKFTNYATHYAESVEGRFTISRDDSKSSVYLQMNNLRAEDTGIYYCTRDYGSRNGYFDYWGQGTTLTVSS
VL: DIVMTQAAPSVPVTPGESVSISCRSSKSLLHSNGNTFLYWFLQRPGQSPQLLIYRMSNLASGVPDRFSGSGSGTAFTLRVSRVEAEDVGIYYCMQHLEYPYTFGGGTKLEIKT
notes: the HC/LC entries may hold it too; also called clone 2-7
Regarding B5, the binding result in test [1] is on record as “no binding (tested: 1000 ng/ml (Log 3))”.
